Test results from publication PMC10322944, “Cryo-EM and femtosecond spectroscopic studies provide mechanistic insight into the energy transfer in CpcL-phycobilisomes” (Nature Communications, 2023).

B1: CpcL (linker protein of CpcL-PBS) (natural protein, UniProt P74625 1-249, looked up)
chain: MTLPLIAYAPVSQNQRVTNYEVSGDEHARIFTTEGTLSPSAMDNLIAAAYRQVFNEQQMIQSNRQIALESQFKNQQITVRDFIRGLALSDSFRRRNFEVNNNYRFVQMCIQRLLGRDVYSEEEKIAWSIVIATKGLPGFINELLNSQEYLENFGYDTVPYQRRRILPQRISGELPFARMPRYGADHREKLEAIGYFRNQAPLTYRWEWQKQPYPAGVYLAGKVVLYVGGALVSLGIIAVALSAWGIIGL
notes: linker protein CpcL (also called CpcG2) of Synechocystis sp; PCC 6803; Pfam00427 domain resolved, transmembrane region not resolved in the map; native protein in the isolated CpcL-PBS; model started from the AlphaFold database entry; also called CpcG2; source: endogenous, Synechocystis 6803 ΔapcAB mutant strain; purified as part of CpcL-PBS (sucrose gradient)
B2: CpcC2 (rod linker protein) (natural protein)
chain: not shown
notes: phycocyanin-associated rod linker CpcC2 of Synechocystis sp; PCC 6803; Pfam00427 domain at the N-terminus, Pfam01383 domain at the C-terminus; native protein in the isolated CpcL-PBS; model started from the AlphaFold database entry; source: endogenous, Synechocystis 6803 ΔapcAB mutant strain; purified as part of CpcL-PBS (sucrose gradient)
B3: phycocyanin (PC) αβ monomer (CpcA-CpcB heterodimer) (complex)
chain 1: not shown
chain 2: MFDVFTRVVSQADARGEYLSGSQLDALSATVAEGNKRIDSVNRITGNASAIVSNAARALFAEQPQLIQPGGNAYTSRRMAACLRDMEIILRYVTYATFTGDASVLEDRCLNGLRETYVALGVPGASVAAGVQKMKEAALDIVNDPNGITRGDCSAIVAEIAGYFDRAAAAVA
modifications: phycocyanobilin (PCB) covalently attached (bilin α84) | phycocyanobilin (PCB) covalently attached (bilins β82 and β152; printed β155 in p-0013)
notes: C-phycocyanin alpha subunit CpcA of Synechocystis sp; PCC 6803; as m1; C-phycocyanin beta subunit CpcB of Synechocystis sp; as m2; made for the self-association of the αβ monomer into trimers and hexamers; 18 αβ monomers stand in the three-layered CpcL-PBS; source: endogenous, Synechocystis 6803 ΔapcAB mutant strain; purified as part of CpcL-PBS (sucrose gradient)
B4: CpcB (phycocyanin β subunit) (natural protein, UniProt Q54714 1-172, looked up)
chain: B3 chain 2
modifications: phycocyanobilin (PCB) covalently attached (bilins β82 and β152; printed β155 in p-0013)
notes: C-phycocyanin beta subunit CpcB of Synechocystis sp; PCC 6803; native protein in the isolated CpcL-PBS; 18 copies in the three-layered CpcL-PBS; also called β-PC; PC β subunit; source: endogenous, Synechocystis 6803 ΔapcAB mutant strain; purified as part of CpcL-PBS (sucrose gradient)
B5: CpcC1 (rod linker protein) (natural protein)
chain: not shown
notes: phycocyanin-associated rod linker CpcC1 of Synechocystis sp; PCC 6803; Pfam00427 domain at the N-terminus, Pfam01383 domain at the C-terminus; native protein in the isolated CpcL-PBS; model started from the AlphaFold database entry; source: endogenous, Synechocystis 6803 ΔapcAB mutant strain; purified as part of CpcL-PBS (sucrose gradient)

Columns and labels:
Test in all cases: cryo-EM structure; CpcL-PBS isolated from the ΔapcAB strain on a sucrose gradient (0.75 M K/Na-PO4 pH 7.0, 0.0125% glutaraldehyde, 0.03% β-DDM, 22 °C); phosphate diluted on the grid with 50 mM Tris pH 7.0, 0.01% β-DDM; map at 2.64 Å
[1] = target: B5; settings: both partners purified
[2] = target: T1, three-domain ferredoxin-NADP+ oxidoreductase (FNR3D) (Synechocystis sp. PCC 6803 (endogenous …, UniProt Q55318 1-413)); settings: both partners purified
T1 construct: ferredoxin-NADP+ oxidoreductase (PetH) of Synechocystis sp; only the CpcD (Pfam01383) domain is resolved in the map; model started from the AlphaFold database entry of PetH; also called PetH; source: endogenous, Synechocystis 6803 ΔapcAB mutant strain; purified as part of CpcL-PBS (sucrose gradient)

[3] = target: the molecule itself
[4] = target: B1; settings: both partners purified

T1 sequence (Q55318 whole entry): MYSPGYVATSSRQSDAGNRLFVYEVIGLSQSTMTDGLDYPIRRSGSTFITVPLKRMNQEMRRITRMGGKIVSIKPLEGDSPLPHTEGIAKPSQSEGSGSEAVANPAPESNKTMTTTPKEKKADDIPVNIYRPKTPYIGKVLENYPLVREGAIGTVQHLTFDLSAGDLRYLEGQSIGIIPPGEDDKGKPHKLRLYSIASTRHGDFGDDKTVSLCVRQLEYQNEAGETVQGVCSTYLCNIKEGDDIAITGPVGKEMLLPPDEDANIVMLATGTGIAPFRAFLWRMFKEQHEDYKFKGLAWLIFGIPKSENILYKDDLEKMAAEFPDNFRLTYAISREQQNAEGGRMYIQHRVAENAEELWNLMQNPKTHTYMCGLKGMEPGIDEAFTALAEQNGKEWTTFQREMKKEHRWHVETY

Binder: B1
binding result [1]: binds

Binder: B2
binding result [2]: binds

Binder: B3
stoichiometry N [3]: 6

Binder: B4
binding result [4]: binds

Binder: B5
stoichiometry N [4]: 1
